The results in this text go back to patent US11653679B2, “High-purity steviol glycosides” (PureCircle Sdn Bhd, priority 2014, dated 2023).

The data set in a line: Directed evolution of UGT76G1, Rebaudioside D to Rebaudioside M, round 1 (Example 26). The conditions noted are these: 100 μL fresh lysate, 0.5 mM Rebaudioside D, 30° C., pH 7.2. Format: biochemical. A digest of the protocol:
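Cleared cell lysate (Bugbuster) incubated with 0.5 mM Rebaudioside D, 3 mM MgCl2 and 2.5 mM UDP-glucose in 50 mM phosphate pH 7.2 at 30 °C. Samples at 2, 4, 7 and 24 h analysed by HPLC-CAD for conversion and initial rate.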

B1: UGT76G1var85: UGT76G1 variant, mutations T284L_G348P_F377C_P382M_N409R (protein, UniProt Q6VAB4 1-458, looked up, variant T284L G348P F377C P382M N409R)
UDP-glycosyltransferase 76G1: MENKTETTVRRRRRIILFPVPFQGHINPILQLANVLYSKGFSITIFHTNFNKPKTSNYPHFTFRFILDNDPQDERISNLPTHGPLAGMRIPIINEHGADELRRELELLMLASEEDEEVSCLITDALWYFAQSVADSLNLRRLVLMTSSLFNFHAHVSLPQFDELGYLDPDDKTRLEEQASGFPMLKVKDIKSAYSNWQILKEILGKMIKQTKASSGVIWNSFKELEESELETVIREIPAPSFLIPLPKHLTASSSSLLDHDRTVFQWLDQQPPSSVLYVSFGSLSEVDEKDFLEIARGLVDSKQSFLWVVRPGFVKGSTWVEPLPDGFLGERGRIVKWVPQQEVLAHPAIGAFWTHSGWNSTLESVCEGVPMIFSDCGLDQMLNARYMSDVLKVGVYLENGWERGEIARAIRRVMVDEEGEYIRQNARVLKQKADVSLMKGGSSYESLESLVSYISSL
As to B1, the “conversion Reb D to Reb M after 24 h” value came out at 1.8% and the initial rate is recorded as 4.0E+05 Reb M area/min.

B2: UGT76G1var86: UGT76G1 variant, mutations E224A_T284L_V396F_Y397E_I407V (protein, UniProt Q6VAB4 1-458, looked up, variant E224A T284L V396F Y397E I407V)
UDP-glycosyltransferase 76G1: MENKTETTVRRRRRIILFPVPFQGHINPILQLANVLYSKGFSITIFHTNFNKPKTSNYPHFTFRFILDNDPQDERISNLPTHGPLAGMRIPIINEHGADELRRELELLMLASEEDEEVSCLITDALWYFAQSVADSLNLRRLVLMTSSLFNFHAHVSLPQFDELGYLDPDDKTRLEEQASGFPMLKVKDIKSAYSNWQILKEILGKMIKQTKASSGVIWNSFKALEESELETVIREIPAPSFLIPLPKHLTASSSSLLDHDRTVFQWLDQQPPSSVLYVSFGSLSEVDEKDFLEIARGLVDSKQSFLWVVRPGFVKGSTWVEPLPDGFLGERGRIVKWVPQQEVLAHGAIGAFWTHSGWNSTLESVCEGVPMIFSDFGLDQPLNARYMSDVLKVGFELENGWERGEVANAIRRVMVDEEGEYIRQNARVLKQKADVSLMKGGSSYESLESLVSYISSL
With B2, the “conversion Reb D to Reb M after 24 h” value came out at 1.6% and the initial rate amounted to 3.8E+05 Reb M area/min.

B3: UGT76G1var87: UGT76G1 variant, mutations S241I_L243A_V300A_F314S_N409R (protein, UniProt Q6VAB4 1-458, looked up, variant S241I L243A V300A F314S N409R)
UDP-glycosyltransferase 76G1: MENKTETTVRRRRRIILFPVPFQGHINPILQLANVLYSKGFSITIFHTNFNKPKTSNYPHFTFRFILDNDPQDERISNLPTHGPLAGMRIPIINEHGADELRRELELLMLASEEDEEVSCLITDALWYFAQSVADSLNLRRLVLMTSSLFNFHAHVSLPQFDELGYLDPDDKTRLEEQASGFPMLKVKDIKSAYSNWQILKEILGKMIKQTKASSGVIWNSFKELEESELETVIREIPAPIFAIPLPKHLTASSSSLLDHDRTVFQWLDQQPPSSVLYVSFGSTSEVDEKDFLEIARGLADSKQSFLWVVRPGSVKGSTWVEPLPDGFLGERGRIVKWVPQQEVLAHGAIGAFWTHSGWNSTLESVCEGVPMIFSDFGLDQPLNARYMSDVLKVGVYLENGWERGEIARAIRRVMVDEEGEYIRQNARVLKQKADVSLMKGGSSYESLESLVSYISSL
In turn, B3 came in with an initial rate of 2.1E+07 Reb M area/min.

B4: UGT76G1var5: UGT76G1 variant, mutations F22Y_I373L_P382M (protein, UniProt Q6VAB4 1-458, looked up, variant F22Y I373L P382M)
UDP-glycosyltransferase 76G1: MENKTETTVRRRRRIILFPVPYQGHINPILQLANVLYSKGFSITIFHTNFNKPKTSNYPHFTFRFILDNDPQDERISNLPTHGPLAGMRIPIINEHGADELRRELELLMLASEEDEEVSCLITDALWYFAQSVADSLNLRRLVLMTSSLFNFHAHVSLPQFDELGYLDPDDKTRLEEQASGFPMLKVKDIKSAYSNWQILKEILGKMIKQTKASSGVIWNSFKELEESELETVIREIPAPSFLIPLPKHLTASSSSLLDHDRTVFQWLDQQPPSSVLYVSFGSTSEVDEKDFLEIARGLVDSKQSFLWVVRPGFVKGSTWVEPLPDGFLGERGRIVKWVPQQEVLAHGAIGAFWTHSGWNSTLESVCEGVPMLFSDFGLDQMLNARYMSDVLKVGVYLENGWERGEIANAIRRVMVDEEGEYIRQNARVLKQKADVSLMKGGSSYESLESLVSYISSL
Consider B4, for which the “conversion Reb D to Reb M after 24 h” value is 3.5% and the initial rate was 2.3E+06 Reb M area/min.
